# Laboratory results from US20040176567A1, “Modified calcitonin” (priority 2001, published 2004).
# Marks after values point to notes of the source that are not given here. Bridge positions count the residues as written; N and C are the ends. Ends that are not written are not given here.
# Experiments:
# [1] = Secondary structure (helical content) by circular dichroism; assay type: physicochemical; conditions: for Helical content compared with hCT: neutral and low pH (7.0 and 3.0); for Helical content by CD: neutral pH (7.0), 25° C., ellipticity at 222 nm
# Protocol: FIG. 2. Secondary structure of calcitonin peptides measured by circular dichroism. Experiments reflect the thermal denaturation profile of the peptides at pH 7.0 and 3.0 respectively. Ellipticity was measured at 222 nm and reflects the α-helical content of the peptides. Helical content based on CD spectra calculations (25° C.) according to Chen et al. (1974). Biochemistry 13, 3350-59.
# Circular dichroism and Nuclear magnetic resonance were used to characterise the structural properties of human (hCT), salmon (sCT) and 6 chR (6 chR) calcitonin. Peptide concentration was estimated by amino acid analysis.
# T47D (HTB 133) cells = assay: Calcitonin activity by cyclic AMP intracellular accumulation; assay type: cell-based, Human; conditions: for cAMP stimulation compared with basal levels: saturation concentration 1·10^−6 M, 15 min at 37° C., T47D cells
# Source text: Activity tests may be carried out in suitable animal models using, for example chickens or mice. Activity can also be monitored in vitro, for example in cellular cultures. LLC-PKI kidney cells may be used, for which calcitonin has been reported to increase alkaline phosphatase activity and cAMP levels Wohlwend A et al (1985) Biochem Biophys Commen 131 537-542, Miyamoto K. I. et al (1998) Jpn. J. Pharmacol 76.193-198. […] We used a combination of two previously described systems with some modifications (Zimmerman, U. et al, 1997, J. Endocrinol. 155, 423-431; Miyamoto, K. I. et al, 1998, Jpn. J. Pharmacol 76, 193-198). Human ductal carcinoma T47D (HTB 133) cells were used for the assays.
# T47D (HTB 133) cells were purchased from the American Type Culture Collection (ATCC) and grown in RPMI-1640 modified medium (ATCC) containing 2 mM L-glutamine, 10 mM HEPES, 1 mM sodium pyruvate, 4.5 g/L glucose and 1.5 g/L sodium bicarbonate. This medium was supplemented with 10% heat-inactivated fetal calf serum, 25 μg/mL gentamycin and 100 nM dexamethasone, this last to enhance the expression of calcitonin receptors. Cells were grown in a humidified atmosphere of 95% air-5% CO2 at 37° C.
# Cyclic AMP (cAMP) accumulation was used to measure the degree of stimulation upon incubation in the presence of different calcitonin peptides. Typically cells were grown in multi-well plates until confluency was reached and then washed with pre-heated DPBS-glucose (Gibco, Invitrogen) to remove any traces of fetal serum. Sample solutions were prepared by dissolving different amounts of hCT, sCT and 6 chR (6 CT) in DPBS-glucose supplemented with 0.1% BSA and 1 mM IBMX (3-isobuthyl-1-methylxanthine). After being washed, cells were incubated for 15 min at 37° C. in the presence of the peptide solutions. Medium was then removed by aspiration and cells were rapidly frozen on dry-ice and then kept at −80° C. until cAMP measurements were carried out.
# Cyclic AMP content of different samples was measured using a commercial AMP enzyme immunoassay (EIA) system (Biotrak, Amersham-Biotech) according to manufacturer's specifications. Different dilutions of cellular extracts were measured in order to cover the whole range of stimulation caused by calcitonin incubation. Saturation concentrations (1·10^−6 M) of the three peptides (hCT, sCT & 6chR) were used to establish the maximum capacity of stimulation for each one of the different sequences. […] All three peptides show clear stimulation effects confirming the calcitonin-like activity of the engineered 6 chR (6 CT) peptide.
# [2] = Aggregation studies, turbidity at 340 nm; assay type: physicochemical; conditions: for Aggregation time (turbidity at 340 nm) / Aggregation time (development of turbidity at 340 nm) / Aggregation time (half time, turbidity at 340 nm): 37° C., pH 7.2
# Protocol: Aggregation analysis was carried out as reported previously (Arvinte, T. et al., 1993, J. Biol. Chem, 268, 6415-6422) using PBS 5 mM sodium phosphate, 145 mM NaCl, pH 7.2. (sodium phosphate saline buffer) pH 7.2 and adding a minor amount of sodium azide to prevent bacterial growth (0.1%). Samples were always incubated at 37° C.
# Aggregation was monitored by measuring turbidity at 340 nm. Different concentrations of peptide were tested.
# [3] = target: calcitonin receptors on human ductal carcinoma T47D (HTB 133) cells (human) (UniProt P30988); assay: cell-based or functional assay; conditions: scale: orders of magnitude compared with the basal levels
# Sequence of UniProt P30988 (P30988 25-474, stated change not applied): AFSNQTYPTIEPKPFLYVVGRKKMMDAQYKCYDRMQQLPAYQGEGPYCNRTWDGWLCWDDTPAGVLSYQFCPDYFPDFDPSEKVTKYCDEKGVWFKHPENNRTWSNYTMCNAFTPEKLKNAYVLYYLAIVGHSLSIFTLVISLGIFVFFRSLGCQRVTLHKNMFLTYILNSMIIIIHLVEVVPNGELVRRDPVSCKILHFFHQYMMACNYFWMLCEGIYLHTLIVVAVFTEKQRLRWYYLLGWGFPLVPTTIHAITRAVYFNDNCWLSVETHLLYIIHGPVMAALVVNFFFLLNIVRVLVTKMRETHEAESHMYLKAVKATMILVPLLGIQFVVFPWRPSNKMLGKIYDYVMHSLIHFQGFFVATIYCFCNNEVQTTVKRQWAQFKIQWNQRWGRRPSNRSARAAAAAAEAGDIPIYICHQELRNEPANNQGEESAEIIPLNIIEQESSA
substance,measurement,setting,value
CSNLSTCVLGKLSQELHKLQTYPRTNTGSGTP [Salmon-1],Helical content compared with hCT,[1],higher helical content than hCT
same,Helical content by CD,[1],22.5%
same,cAMP stimulation compared with basal levels,T47D (HTB 133) cells,close to three orders of magnitude
CGNLSTCMLGKLTQELRKLHTFPQTAIGVGAP (disulfide 1-7; ends not checked) [6chR],Time required to aggregate relative to the human peptide,[2],at least two orders of magnitude larger
same,Aggregation time (turbidity at 340 nm),"[2]; 1 mg/mL filtered 0.5 μm, no aggregation detected at the end of the experiment",(>10 months)^c
same,Aggregation time (turbidity at 340 nm),[2]; 10 mM (~35 mg/mL) unfiltered,18 days
same,Aggregation time (turbidity at 340 nm),"[2]; 10 mg/mL filtered 0.5 μm, no aggregation detected at the end of the experiment",(>10 months)^c
same,Aggregation time (turbidity at 340 nm),"[2]; 10 mg/mL unfiltered, no aggregation detected at the end of the experiment",(>10 months)^c
same,Aggregation behaviour compared with human calcitonin (FIG. 1),"[2]; 35 mg/mL, solutions not filtered",aggregates much more slowly than the human form
same,Time without detectable aggregation,"[2]; concentrations of 10 mg/mL or below, unfiltered and filtered solutions",> 10 months
same,Helical content compared with hCT,[1],enhanced helical content
same,Helical content by CD,[1],21.1%
same,cAMP stimulation effect compared with hCT and sCT,"T47D (HTB 133) cells; 1·10^−6 M, T47D cells (FIG. 3)",clearly higher than that of the hCT and even the sCT peptide
same,cAMP stimulation compared with basal levels,T47D (HTB 133) cells,close to three orders of magnitude
"CGNLSTCMLGTYTQDFNKFHTFPQTAIGVGAP [Human, reference compound]",Aggregation time (development of turbidity at 340 nm),[2]; 1 mg/mL filtered 0.5 μm,˜45 days
same,"Aggregation time (half time, turbidity at 340 nm)",[2]; 10 mM (~35 mg/mL) unfiltered,4 h
same,Aggregation time (development of turbidity at 340 nm),[2]; 10 mg/mL filtered 0.5 μm,˜26 days
same,"Aggregation time (half time, turbidity at 340 nm)",[2]; 10 mg/mL unfiltered,˜30 hours
same,Helical content by CD,[1],11.3%
same,cAMP stimulation compared with basal levels,T47D (HTB 133) cells,close to three orders of magnitude
salmon calcitonin (from UniProt P01263 83-114) (peptide),"intracellular cAMP accumulation in T47D cells, peptide at saturation concentration 1·10^-6 M, 15 min, cAMP EIA",[3],3
